One may read the EC50 as the concentration giving half of the maximal effect. For orientation: IC50 means the concentration that inhibits the measured activity by half. Higher therefore signals weaker potency.

The target in assay [1] is T1, BDNF (UniProt P23560 129-247).
T1 construct: also called brain-derived neurotrophic factor
T1 sequence (looked up): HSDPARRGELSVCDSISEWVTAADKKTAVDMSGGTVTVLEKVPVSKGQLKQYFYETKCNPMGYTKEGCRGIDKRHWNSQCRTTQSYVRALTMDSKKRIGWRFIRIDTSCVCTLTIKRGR
Kind of assay: ELISA. For orientation: ELISA stands for enzyme-linked immunosorbent assay.

Assay [2] deals with T2, NT4 (UniProt P34130 81-210).
T2 construct: also called neurotrophin-4
T2 sequence (looked up): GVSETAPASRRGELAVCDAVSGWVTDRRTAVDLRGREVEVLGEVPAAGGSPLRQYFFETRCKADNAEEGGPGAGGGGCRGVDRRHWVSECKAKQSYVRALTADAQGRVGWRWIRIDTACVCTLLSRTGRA
Put plainly: ELISA.

Assay [3] deals with T3, NT3 (UniProt P20783 139-257).
T3 construct: also called neurotrophin-3
T3 sequence (looked up): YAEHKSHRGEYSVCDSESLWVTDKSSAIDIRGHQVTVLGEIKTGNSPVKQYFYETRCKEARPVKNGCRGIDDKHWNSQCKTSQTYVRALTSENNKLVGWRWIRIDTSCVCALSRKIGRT
Put plainly: ELISA.

In assay [4] the target is T4, human NGF (R&D system) (human, UniProt P01138 122-241). Put plainly: cell-based or functional assay.
The target in assay [5] is T4, human NGF (R&D system). Kind of assay: cell-based or functional assay. This is another data set of the same source.
Assay [6] concerns the target T4, human NGF (R&D system). Kind of assay: cell-based or functional assay. This is another data set of the same source.
For assay [7], the target named is recombinantly produced human-NGF (human, UniProt P01138 122-241, limits assumed). Kind of assay: ELISA, human NGF coated, IgG titrated. Summed up:
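Plates coated overnight at 4 °C with recombinant human NGF at 1 μg/ml, blocked with PBS/1% BSA. Serially diluted purified antibodies or 1:1 supernatants bound 2 h at 37 °C; detection with AP anti-human IgG Fc (1:3000, 1 h RT), PNPP substrate, OD 405 nm.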

Assay [8] concerns the target T5, human NGF-Fc4 (IgG4-Fc) (human, UniProt P01138 122-241, limits assumed).
T5 construct: not shown: human IgG4 Fc
Kind of assay: competition ELISA: antibody pre-incubated with human NGF-Fc4, binding to coated TrkA-Fc. The procedure:
TrkA inhibition ELISA assay: The TrkA inhibition ELISA assay was designed to identify the anti-NGF antibodies that have the capability of blocking NGF binding to its receptor TrkA. In this assay, human TrkA-Fc (IgG1-Fc, Sinobiological) was coated at 1 μg/ml in the 96-well plates and incubated overnight at 4° C. Antibodies, from cell culture supernatants or after purified, in different dilutions, were pre-incubated with human NGF-Fc4 (IgG4-Fc) at a final concentration of 70 ng/mL for 2 hours in 37° C. A total of 50 μl of the reaction mixtures were then transferred into the TrkA-Fc coated 96-well plates and incubated in room temperature for 2 hours. After washing, a secondary mouse anti-human IgG4-AP (Southern biotech) was added at a dilution of 1:1000 After one hour in room temperature, the plates were washed, and after adding PNPP substrate, ODs at 405 nm were read.
TrkA inhibition ELISA assay: The optimized anti-NGF antibodies Ab4, Ab6, Ab10, Ab16, Ab36, Ab37, Ab44, Ab45, Ab46, Ab47, Ab48, Ab49, Ab52, Ab54, Ab55, Ab56, Ab57, Ab58, Ab59, Ab60, Ab61 and the reference antibody Tanezumab (Pfizer), a humanized antibody from mouse hybridoma were further analyzed for their abilities to block NGF binding to its receptor TrkA. TrkA inhibition assay was performed as described in Example 1.

Assay [9] addresses T5, human NGF-Fc4 (IgG4-Fc). Kind of assay: competition ELISA: antibody pre-incubated with human NGF-Fc4, binding to coated p75-Fc. The procedure:
p75 inhibition ELISA assay: The p75 inhibition assay was designed to identify anti-NGF antibodies that were capable of inhibiting NGF binding to p75. In this assay, human p75-Fc (IgG1-Fc, Sinobiological) was coated at 1 μg/mL in the 96-well plates and incubated overnight at 4° C. Anti-NGF antibodies, from supernatants directly or after purified, in different dilutions, were pre-incubated with human NGF-Fc4 (IgG4-Fc) at a final concentration of 350 ng/mL for 2 hours in 37° C. A total of 50 μl of the reaction mixtures were then transferred into the p75-Fc coated 96-well plates and incubated in room temperature for 2 hrs. After washing, a secondary mouse anti-human IgG4-AP (Southern biotech) was added at a dilution of 1:1000. After 1 hour in room temperature, the plates were washed, and after adding PNPP substrate, ODs at 405 nm were read.
p75 inhibition ELISA assay: The optimized anti-NGF antibodies Ab4, Ab61, and the reference antibody Tanezumab, a humanized antibody from mouse hybridoma were further analyzed for their abilities to block NGF binding to its receptor p75. P75 inhibition assay was performed as described in Example 1.

T4 sequence (P01138 122-241 limits assumed): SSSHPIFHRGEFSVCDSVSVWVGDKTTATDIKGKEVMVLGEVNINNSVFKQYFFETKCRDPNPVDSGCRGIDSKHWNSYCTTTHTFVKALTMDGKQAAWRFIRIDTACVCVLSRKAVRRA
T5 sequence (P01138 122-241 limits assumed): as above
Chain of recombinantly produced human-NGF (P01138 122-241 limits assumed): as above

B1: Ab4 (antibody, human IgG1, V domains shown)
VH: EVQLVQSGAEVKKPGATVKISCKVSGYTFITYWISWVQQAPGKGLEWMGAIDPSDSDARYSPSFQGRVTITADTSTDTAYMELSSLRSEDTAVYYCAKSDPGYSGYSLLYGFDSWGQGTLVTVSS
VL: DVVMTQSPLSLPVTLGQPASISCRSSQSLVQRNGNTYLSWYQQRPGQSPRLLIYQVSNRYSGVPDRFSGSGSGTDFTLKISRVEAEDVGVYYCGQGAHLPLTFGQGTKVEIK
As to B1, the binding result in assay [1], in assay [2] and in assay [3] was “no binding (tested: 100 µg/mL)” in each case. The “ERK1/2 Signaling Pathway Inhibition Assay IC50 (PC12 cells)” value in [4] stood at 0.131 nM. The “Chicken DRG Neurite Outgrowth Inhibition Assay IC50” value in assay [5] is 0.0663 nM. Besides, the “TF1 Cell Proliferation Inhibition Assay IC50” value in [6] was determined as 0.174 nM. Also, the EC50 in assay [7] is 0.0124 ng/mL. In addition, the IC50 in [8] was 74.6 ng/mL; in [9] it was 481 ng/mL.

Values taken from US20230220057A1 (STAIDSON BEIJING BIOPHARMACEUTICALS, published 2023).
